Our source for the FRET efficiency values is paper PMC2829087.

The target of this experiment is Myc-GPI-TSHR-ecd (TSH receptor ectodomain, residues 1-412, linked to a GPI anchor, Myc-tagged) (human) (UniProt P16473). The experiment is described as follows: FRET or BRET; sensitized emission FRET on transfected HEK 293 cells fixed with 4% paraformaldehyde; anti-HA FITC (donor) and anti-Myc Cy3 (acceptor), or GFP (donor) and anti-Myc Cy3 (acceptor) for full-length receptors; pFRET software.

In the case of “HA-GPI-TSHR-ecd (TSH receptor ectodomain, residues 1-412, linked to a GPI anchor, HA-tagged) (from UniProt P16473 21-412) (domain or fragment)”, the FRET efficiency lay within 8 to 10%.
